In test [1] the target is ZZ peptide displayed on the CHO cell surface with the murine B7-1 transmembrane domain (from pEF1α-ZZ-B7). Kind of test: flow cytometry on cells; stable CHO-ZZ cells (2 x 10^5 cells/sample) incubated with an excess of fluorescein-conjugated IgG of Table 2 for 40 min at 4 °C, washed with PBS; percentage of positive cells. On the technique in general: In flow cytometry, cells or beads pass a laser one at a time.

For test [2], the target named is ZZ peptide displayed on the CHO cell surface with the human PDGFR transmembrane domain (from pEF1α-ZZ-PDGFR). Kind of test: flow cytometry on cells; CHO cells transiently transfected with the ZZ display plasmid, labelled with hIgG-FITC; percentage of ZZ-positive cells.
For test [3], the target named is ZZ peptide displayed on the CHO cell surface with the murine B7-1 transmembrane domain (from pEF1α-ZZ-B7). The description is as above.

In the case of “Donkey Anti-Rabbit IgG (H + L)-Cy3 (Jackson ImmunoResearch Laboratories 711-165-152) (antibody)”, in test [1], the percentage of positive cells was determined as 100%.
Still for that read-out and setting: next, “Rb pAb to HA tag (PE) (Abcam Ab72564) (antibody)”: 100%; “Rb pAb to 6× His tag (FITC) (Abcam Ab1206-250) (antibody)”: 100%.
The substance “Human IgG-FITC (Bersee BFR550) (antibody)” gave a percentage of positive cells in test [1] of 100%. Further, the values for the percentage of ZZ-positive cells in test [2] and in test [3] were 6.9% and 43.6%, respectively.

These data come from article PMC10375748.
